From patent publication CN115368447A (HEFEI TIANGANG IMMUNOLOGY PHARMACEUTICAL CO LTD, dated 2022)

Legend:
[1] = target: T1, 4-1BB蛋白 (SEQ ID NO:27), expressed on CHO-K1-4-1BB cells and Jurkat-NFAT-lucia-4-1BB cells (Homo sapiens (Human), UniProt Q07011 24-255); experiment: flow cytometry on CHO-K1-4-1BB cells, Alexa-647 anti-human Fc
T1 construct: expressed by lentiviral transduction; also called CHO-K1-4-1BB细胞; Jurkat-NFAT-lucia-4-1BB细胞

[2] = target: T2, 4-1BB-strep tagII蛋白 (Homo sapiens (Human), UniProt Q07011 24-186); experiment: ELISA, 4-1BB-strep tagII coated at 2 ug/mL, HRP anti-human IgG, OD450
T2 construct: Soluble 4-1BB with C-terminal strep tag II, made in house; Coated on the ELISA plate at 2 ug/mL; also called 4-1BB蛋白

[3] = target: T3, Nectin-4蛋白 (SEQ ID NO:29), expressed on CHO-K1-Nectin-4 cells and A375-Nectin-4 cells (Homo sapiens (Human), UniProt Q96NY8 32-510); experiment: flow cytometry on CHO-K1-Nectin-4 cells, Alexa-647 anti-human Fc
T3 construct: expressed by lentiviral transduction; also called CHO-K1-Nectin-4细胞; A375-Nectin-4细胞
T3 sequence: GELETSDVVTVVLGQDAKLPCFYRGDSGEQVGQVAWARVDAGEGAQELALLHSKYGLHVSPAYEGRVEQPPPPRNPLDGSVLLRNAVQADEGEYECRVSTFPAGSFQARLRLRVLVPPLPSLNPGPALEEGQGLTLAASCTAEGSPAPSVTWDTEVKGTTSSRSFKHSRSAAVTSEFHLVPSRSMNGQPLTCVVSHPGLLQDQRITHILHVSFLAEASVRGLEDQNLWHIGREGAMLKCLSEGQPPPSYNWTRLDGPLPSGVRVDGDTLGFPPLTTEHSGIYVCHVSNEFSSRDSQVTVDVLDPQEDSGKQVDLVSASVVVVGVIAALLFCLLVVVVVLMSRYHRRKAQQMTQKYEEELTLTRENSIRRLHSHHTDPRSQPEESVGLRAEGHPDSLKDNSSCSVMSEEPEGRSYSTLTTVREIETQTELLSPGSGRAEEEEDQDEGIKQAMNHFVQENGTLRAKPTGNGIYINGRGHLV

Measured: binding result

T1 sequence (Q07011 24-255 limits assumed): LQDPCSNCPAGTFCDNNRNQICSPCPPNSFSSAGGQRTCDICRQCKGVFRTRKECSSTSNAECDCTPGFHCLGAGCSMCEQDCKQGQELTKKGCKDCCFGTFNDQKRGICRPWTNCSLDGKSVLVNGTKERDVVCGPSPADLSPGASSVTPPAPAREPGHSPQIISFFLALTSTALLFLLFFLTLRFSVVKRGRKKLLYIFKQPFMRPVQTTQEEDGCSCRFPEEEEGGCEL

B1: 抗体4-1BB×Nectin-4 (bispecific antibody, human IgG1, kappa, L234A L235A)
scFv: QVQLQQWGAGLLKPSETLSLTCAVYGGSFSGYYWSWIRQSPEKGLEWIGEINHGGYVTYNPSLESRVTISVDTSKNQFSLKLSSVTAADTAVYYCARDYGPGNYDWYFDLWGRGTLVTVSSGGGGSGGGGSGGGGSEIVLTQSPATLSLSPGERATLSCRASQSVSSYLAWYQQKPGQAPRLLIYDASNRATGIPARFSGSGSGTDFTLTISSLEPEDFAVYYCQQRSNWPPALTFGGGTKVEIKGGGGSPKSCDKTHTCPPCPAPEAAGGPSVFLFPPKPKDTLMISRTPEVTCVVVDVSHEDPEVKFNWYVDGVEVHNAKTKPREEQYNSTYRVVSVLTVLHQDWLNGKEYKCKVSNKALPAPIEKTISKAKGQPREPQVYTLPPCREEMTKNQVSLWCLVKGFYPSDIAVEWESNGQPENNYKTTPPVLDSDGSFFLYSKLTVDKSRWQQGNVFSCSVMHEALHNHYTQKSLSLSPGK
heavy: EVQLVESGGGLVQPGGSLRLSCAASGFTFSSYNMNWVRQAPGKGLEWVSYISSSSSTIYYADSVKGRFTISRDNAKNSLSLQMNSLRDEDTAVYYCARAYYYGMDVWGQGTTVTVSSASTKGPSVFPLAPSSKSTSGGTAALGCLVKDYFPEPVTVSWNSGALTSGVHTFPAVLQSSGLYSLSSVVTVPSSSLGTQTYICNVNHKPSNTKVDKKVEPKSCDKTHTCPPCPAPEAAGGPSVFLFPPKPKDTLMISRTPEVTCVVVDVSHEDPEVKFNWYVDGVEVHNAKTKPREEQYNSTYRVVSVLTVLHQDWLNGKEYKCKVSNKALPAPIEKTISKAKGQPREPQVCTLPPSREEMTKNQVSLSCAVKGFYPSDIAVEWESNGQPENNYKTTPPVLDSDGSFFLVSKLTVDKSRWQQGNVFSCSVMHEALHNHYTQKSLSLSPGK
light: DIQMTQSPSSVSASVGDRVTITCRASQGISGWLAWYQQKPGKAPKFLIYAASTLQSGVPSRFSGSGSGTDFTLTISSLQPEDFATYYCQQANSFPPTFGGGTKVEIKRTVAAPSVFIFPPSDEQLKSGTASVVCLLNNFYPREAKVQWKVDNALQSGNSQESVTEQDSKDSTYSLSSTLTLSKADYEKHKVYACEVTHQGLSSPVTKSFNRGEC
notes: Three chains: anti-4-1BB scFv-Fc (knob); human IgG1 Fc with L234A/L235A already contained in the entries; Produced in ExpiCHO, Protein A purified; also called 4-1BB×Nectin-4抗体; 4-1BB×Nectin-4双特异抗体
binds: all assays above
